Assay results published in the nanobody polyreactivity screen of Harvey et al. (2022).

Assay: yeast display, Sf9 membrane polyspecificity reagent, FACS + sequencing; frameworks hold sequencing errors
How it was run: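 Using colony PCR, genes from sorted yeast display clones were amplified, then sequenced on MiSeq at 2 × 250 and filtered by CDR length. The clones had been stained with 10% biotinylated, detergent-solubilized Sf9 membrane reagent for 1 hour at 4 °C and sorted by FACS into low and high (top ~1%) gates on anti-HA and streptavidin fluorescence. Polyreactivity labels come from the gate of origin.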

| Sequence | polyreactivity (PSR sort gate) |
| --- | --- |
| QVQLVESGGGLVQAGGSLRLSCAASGSNFGSYTMGWYRQAPGKERELDAAITSGGGNTYYADSVKGRFTISRDNAKNTVYLQMNSLKPEDTAVYYCNATVRGRNALGRVQKYYYWGQGTQVTVSS | high polyreactivity |
| QVQLVESGGGLVQAGGSLRLSCAASGNTFTVNAMGWYRQAPGKERELVAAINYSGGSTYYADSVKGRFTISRDNAKNTVYLQMNSLKPEDTAVYYCAASPDELLYEMYYWGQGTQVTVSS | low polyreactivity |
| QVQLVESGGGLVQAGGSLRLSCAASGRILYPYAMGWYRQAPGKERELVAAISSRSANTYYADSVKGRFTISRDNAKNTVYLQMNSLKPEDTAVYYCAARSLGLGFGHWGQGTQVTVSS | high polyreactivity |
| QVQLVESGGGLVQAGGSLRLSCAASGSTFQVYAMGWYRQAPGKERELVATIRRTGGSTYYADSVKGRFTISRDNAKNTVYLQMNSLKPEDTAVYYCAARLGYAGNRDGSWGQGTQVTVSS | high polyreactivity |
| QVQLVESGGGLVQAGGSLRLSCAASGFTFKSYTMAWYRHAPGKERELVANISRRGGSTYYADSVKGRFTLSRDNAKNTVYLQMNSLKPEDTAVYYCAADAYGFLDTTYRYFYWGQGSQVTVSS | high polyreactivity |
| QVQLVESGGGLVQAGGSLRLSCAASGSTFYRYAMGWYRQAPGKERELVAAISSGGRTYYADSVKGRFTISRDNAKNTVYLQMNSLKPEDTAVYYCAADDSEGFDYWGQGTQVTVSS | high polyreactivity |
| QVQLVESGGGLVQAGGSLRLSCAASGIIFYIYTMGWYRQAPGKERELVAAINRSGFRTYYADSVKGRFTISRDNAKNTVYLQMNSLKPEDTAVYYCAAGTGSRDYYWGQGTQVTVSS | high polyreactivity |
| QVQLVESGGGLVQAGGSLRLTCAASGRIFPVYAMGWYRQAPGKERELVAAISGSGGSTYYADSVKGRFTISRDNAKKSVYLQMNSLKPEDTAVYYCAAVTTPRFSIGYEYWGQGTQVTVSS | low polyreactivity |
| QVQLVESGGGLVQAGGSLRLSCAASGSTFKYYTMGWYRQAPGKERELVAAISYSGGSTYYADSVKGRFTISRDNAKNTVYLQMNSLKPEDTAVYYCAALRYADYDYWGQGTQVTVSS | high polyreactivity |
| QVQLVESVGGLVQAGGSLRLICACSGLNFVSYAMGWYRQAPGKERELVAAINSRGSRTYYADSVKGRLTISRDNAKNTVYLQMNSLKPEDTALYYCAAGVIRYGGKEEYYYWGQGTQVTVSS | high polyreactivity |
| QVQLEESGGGLVQAGGSLRLSCAASGRTFRSYTMGWYRQAPGKERELGAAISYNGGSTYYADSVNGRFTISRDYAKNTVYLQMNSLKPEDTSVYYCAVYSIYGFYYWGQGTQVTVSS | high polyreactivity |
| QVQLVESGGGLVQAGGRLRLSCAASGRTFIANVMGWYIQAPGKERELVAAITSGGGTSYADSVKGRFTISRDNAKNTVYLQMNSLKPEDTAVYYCNADGYLAERFVIRLDEYRDYDYWGQGTQVTVSS | low polyreactivity |
| QVQLVESGGGLVQAGGSLRLSCAASGMIFFNYYAMGWYRQAPGKESELVAAIRYGGGSTYYADSVKGRFTISRDNGKNTVYLQMNSLKPEDTAVYYCAARFKGYYRYGYWGQGTQVTVSS | high polyreactivity |
| QVQLVESGGGLVQAGGSLRLSCAASGRTFGVYAMGWYRQAPGKERELVAASRWSGGGTYYADSVKGRFTISRDNAKNTVYLQMNSLKPEDTAVYYGAATFQNSPYSRYTDMYYWGQGTQVTVSS | low polyreactivity |
| QVQLVESGGGLVQAGGSLRLSCAASGFTFYLNAMGWYRQAPGKERELVAAITGSGDDTYYADSVKGRFTISRDNAKNTVYLQMNSLKPEDTAVYYCAADVSYWYDYWGQGTQVTVSS | high polyreactivity |
| QVQLVESGGGLVQAGGSLRLSCAASGSTSYRYAMGWYRQAPGKERELVAAIPWISDSTYYADSVKGRFTISRDNAKNTVVLQMNSLKQEDTAVYYCNTDPLVTTVTFNYWGQGTQVTVSS | low polyreactivity |
| QVQLVESGGGLVQAGGSLRLSCAASGTIYYNTMGWYRQAPGKERELVASISRTGSTKYADSVKGRFTISRDNAKNTVYLQMNSLKPEDTAVYYCAADYLAFREGAVWLYDYWGQGTQVTVSS | high polyreactivity |
| QVQLVESGGGLVQAGGSLRLSCAASGRTDYRYAMGWYRQAPGKERELVAAISRSGGRTYYADSVKGRFTISRDNAKNTVYLQMNSQKPEDTAVYYCASRGLGSGPVVEGDYWGQGTQVTVSS | high polyreactivity |
| QVQLVESGGGLVQAGGSLRLSCAASGRTFQDNAMGWSRQEPGKERELVAAISWRGGSTNYADSVKGRFTISRDNAKNTVFLQLNSLKPEDTAVYYCNRDPRKYGKLDYWGQGTQVTVSS | low polyreactivity |
| QVQLVESGGGLVQAGGSLRLSCAASGSIFLYNDMGWYRQAPGKERELVAAITSTGNTNYADSVKGRFTISRDNAKNTVYLQMNSLNRKIPRSITALNVSCTSVVVGYDYWGQGTQVTVSS | low polyreactivity |
| QVQIVESGGGLVQAGGSLRVSCAASGSILSKYDMGWYRPAPGKERELVAVISSRGGSTYYADSVKGRFTISRDNAKNTVYLQMNSLKPEDTAVYYCNARSGRGYGYWGQGTQVTVSS | high polyreactivity |
| QVQLVESGGGLVQAGGSLRLSCAASGRIFSYYAMGWYRQAPGKERELVAAITWSGGRTYYADSVKGRFTISRDNAKNTVYLQMNSLKPEDTAVYYCAAQGSRWWGFDYWGQGTQVTVSS | high polyreactivity |

| Sequence | polyreactivity (PSR sort gate) |
| --- | --- |
| QVQLVESGGGLVQAGGSLGLSCAASGRTLYRYAMGWYRQARGKERELVAAIRSGGRTNYADSVKGRFTISRDNAKNTVYLQMNSLKPEDTAVYYCAAGTLRYPSTYVDWGQGTQVTVSS | high polyreactivity |
| QVQLVESGGGLVQAGGSLRLSCAASGRTFVYYAMGWYRQAPGKERELVAAITWSGGRTYYADSVKGRFTISRDNAKNTVYLQMNSLKPEDTAVYYCNRDQWPWESGYAYNYWGQGTQVTVSS | low polyreactivity |
| QVQLVESGGGLVQAGGSLRLSCAASGFTFTTYDMGWYRQAPGKERELVAAINSGGSTNYADSVKGRFTISRDNAKNTVYLQMNSLKPEDTAVYYCAAEFYWYYNNFFEDRYYWGQGTQVTVSS | low polyreactivity |
| QVQLVESGGGLVQAGGSLRLSCAASGFTFRYYAMGCYRPAPGKERELVAAISSRGGTTYYADSVKGRFTISRDNAKNTVYLQMNSLKPEDTAVYYCAATYAYGRYYGYVYLGDYWGQGTQVTVSS | high polyreactivity |
| QVQLVESGGGLVQAGGSLRLSGAASGRIFVRNAMGWYRQAPGKERELVADITNGGSTNYADSVKGRFTISRDNAKNTVYLQMNSLKPEDTAVYYCAADTLGVYDGDYWGQGTQVTVSS | low polyreactivity |
| QVQLVESGGGLVQAGGSLRLSCAASGRTFYWYVMGWYRQAPGKERELVAAITQTGSSTYYADSVKGRFTISRDNAKNTVYLQMNSLKPEDTAAYYCADRLSRNHYEVDYWGQGTQVTVSS | low polyreactivity |
| QVQLVESGGGLVQAGGSLRLSCAASGSTFGPYAMGWYRQAPGKERELVAAITLSGGSTYYADSVKGRFTISRDYAKNTVYLQLNRLKPEYTAVYYCAAEYDRVDEDDYWGQGTQVTVSS | high polyreactivity |
| QVQLVESGGGLVQAGGSLRLSCAASGIIFERNAMGWYRQAPGKERELVAAISSNGGSTYYADSVKGRFTISRDNAKNTVYLQMNSLKPEDTAVYYCAAQGVYAGSRYYYWGQGTQVTVSS | high polyreactivity |
| QVQLVESGGGLVQAGGSLRLSCAASGSIFSSYVMGWYRQAPGKERELVAAITSRGGSTYCADSVKGRFTISRDNAKNTVYFQMKSLKPEDTAVYYCAKGGTTWYWSGYRSIYFRYDYWGQGTQVTVSS | high polyreactivity |
| QVQLVESGGGLVQAGGSLRLSCAASGRTLRGNAMGWYRQAPGKEREFVAAITRRGGSTYYADSVKGRFTISRDNAKNTVYLQMNSLKPEDTAVYYCAAEGYDWIYLYYGLGYWGQGTQVTVSS | low polyreactivity |
| QVQLVESGGGLVQAGGSLRLSCAASGRIFVTNAMGWYRQAPGKEREMVAAITRRGGRTYYADSVKGRFTISRDNAKNTVYLQMHSLKREDTAVYYCAAERYPEAGSPYGTAEMDYWGQGTQVTVSS | high polyreactivity |
| QVQLVESGGGLVQAGGSLRLSCAASGSIFIRYTLGWYRQAPGKERELVAVISRRGGSTYYADSVKGRFTISRDNAKNTVYLQMNSLNPEDTAVYYCNTTSSVRAPGSGVYYVPGFDYWGQGTQVTVSS | high polyreactivity |
| HVQLVESGGGLVQAGGSLRLSCAASGSTFIGYDMGWYTQAPGKERELVAAISYYDGTYYADSVNGSFTISRDNAKNTVYLQMNTLKPEDTAVYFCGVYRYDYWGQGTQVTVSS | low polyreactivity |
| QVQLVESGGGLVQAGGSLRLSCDASGITFGNYAMGWYRPAPGKDRELVAAITGSGGRTYYADSVKGRFTISRDNAKNTVYLQMNSLKPEDTAVYYCNRRQYGRKKQYDYWGQGTQVTVSS | high polyreactivity |
| QVQLVESGGGLVQAGGSLRLSCAASGSIFGAYAMGWYRQAPGKERELVAAISGSGTSTYYADSVKGRFTISRDNAKNTVYLQMNSLKPEDTAVYYCAADGTYFYLYLGDRFDYWGQGTQVTVSS | low polyreactivity |
| QVQLVESGGGLVQAGGSLRISCAASGRIFIYNAMGWYRQAPGKERELVAAINRSGVSTHYADSVKGRFTISRDNAKNTVYLQMNSLIPEDTAVYYCARTVYGARSYDYWGQGTQVTVSS | low polyreactivity |
| QVQLVESGGGLVQAGGSLRLSCAASGSTFNNAMGWYRQPPGKERELVAAITRSGVRTYYADSVKGRFTISRDNAKNTVYLQMNSLKPEDTAVYYCAAGFQSRRYYAGYEYWGQGTQVTVSS | high polyreactivity |
| QVQLVESAGGLVQAGGSLRLSCAASGGIFDRYAMGWYRQAPGKERELVAAITSGGSTNYADSVKGRFTISRDNAKNTVYLQMNSLKPEDTAVYYCNADLGILSGVDEGPTFREYDYWGQGTQVTLSS | low polyreactivity |
| QVQLVESGGGLVQAGGSLRLSCAASGRIFYPYAMGWYRQAPGKERELVAVINGSGGSTYYADSVKGRFTISRDNAKNTVYLQMNSLKPEDTAVYYCAAYFGHYWRYYYWGQGSQVTVSS | high polyreactivity |
| QVQLVESGGGLVQAGGSLRLSCAASGFTFRYYTMGWYRQAPGKERELVAAINRSGSTNYADSVKGRFTISRDNAKNTVYLQMNSLKPEDTAVYYCAAAYYGSHGRYDYWGQGTQVTVSS | high polyreactivity |
| QVHLVESGGGLVQAGGSLRLSCAASGRTFYLYTMGWYRQAPGKEREFVAIISRSGASTRYADSVKGRFTISRDNAKNTVYLQMNSLKPEDTAVYYCAAYVGYPYDYWGQGTQVTVSS | high polyreactivity |
